Measurements: US20070015155A1 (published 2007)

Biological target: T1, GST protein (UniProt P08515 1-218 = GST)
T1 construct: Control protein of the GST pull-down, on glutathione beads; also called protein consisting of the GST part alone; product of pGEX-6P-1
Assay: GST pull-down with 35S-labeled in vitro translated protein, SDS-PAGE, autoradiography
Description: Using the protein GST-Cbl prepared above in (2), the presence or absence of the direct interaction of human and mouse CbAP40 proteins with the c-Cbl protein was confirmed by the GST-pull down method (Zikken Kougaku, Vol. 13, No. 6, 1994, p. 528, Matsushime, et al.). Using 0.5 μg of pcDNA-CbAP40 prepared above in Example 1(4) or pcDNA-mCbAP40 prepared above in Example 8(2) as a template, and additionally using 40 μl of TNT kit (TNT^R Quick Coupled Transcription/Translation System; Promega) and 1.3 MBq of a radioisotope (redivue Pro-mix L-[³⁵S]; Amersham) according to the attached protocol, human or mouse CbAP40 protein radioactively labeled was prepared by in vitro transcription and translation. Then, 15 μl each of the prepared solution of human or mouse CbAP40 protein was mixed with 1 μl of the GST protein or GST-Cbl purified on glutathione beads as described above in (2) to which 0.3 ml of Buffer A (50 mM Tris-HCl, pH 7.5, 10% glycerol, 120 mM NaCl, 1 mM EDTA, 0.1 mM EGTA, 0.5 mM PMSF, 0.5% NP-40) was added. The resulting mixture was shaken at 4° C. for one hour. Subsequently, the protein binding to the GST protein or GST-Cbl on the bead was co-precipitated by centrifugation. […] Consequently, a band never detected in mixing the GST protein was detected in case of mixing GST-Cbl.

T1 sequence (P08515 whole entry): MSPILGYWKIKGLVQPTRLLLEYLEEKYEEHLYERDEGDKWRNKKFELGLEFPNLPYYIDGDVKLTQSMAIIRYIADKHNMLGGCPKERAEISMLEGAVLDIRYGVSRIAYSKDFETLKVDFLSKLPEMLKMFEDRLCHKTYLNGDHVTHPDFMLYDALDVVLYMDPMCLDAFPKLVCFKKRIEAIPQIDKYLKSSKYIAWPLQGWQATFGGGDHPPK

- binding result: no binding
B1: human CbAP40-V5-His6 fusion protein (other, not shown: small tags and cut ends)
chain: MMSSSWPGTSPRLSRGSGSCLTSGATGPCQADSSLKAGPGAGVFFLSSAEGEQISFLFDCIVRGISPTKGPFGLRPVLPDPSPPGPSTVEERVAQEALETLQLEKRLSLLSHAGRPGSGGDDRSLSSSSSEASHLDVSASSRLTAWPEQSSSSASTSQEGPRPAAAQAAGEAMVGASRPPPKPLRPRQLQEVGRQSSSDSGIATGSHSSYSSSLSSYAGSSLDVWRATDELGSLLSLPAAGAPEPSLCTCLPGTVEYQVPTSLRAHYDTPRSLCLAPRDHSPPSQGSPGNSAARDSGGQTSAGCPSGWLGTRRRGLVMEAPQGSEATLPGPAPGEPWEAGGPHAGPPPAFFSACPVCGGLKVNPPP
modifications: radioactively labeled by in vitro transcription and translation with redivue Pro-mix L-[35S]
notes: Made by in vitro transcription/translation (TNT kit) from pcDNA-CbAP40; 411 amino acids in total with the 45-residue C-terminal tag. 'mature' stands here for the full-length protein (no signal peptide is mentioned); also called human CbAP40 protein; Cbl associated protein 40
